Key:
[1] = molecular target: T1, N-10 peptide (PSMGFR minus 10 amino acids from the N-terminus); assay: ELISA (FIG. 2B-2C)
T1 construct: also called N-10 PSMGFR; PSMGFR N-10
T1 peptide: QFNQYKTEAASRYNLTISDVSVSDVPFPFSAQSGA

[2] = molecular target: T2, N+20/C-27 peptide (20 amino acids added onto the N-terminus and 27 deleted from the C-terminus of PSMGFR); assay: ELISA (FIG. 63)
T2 peptide: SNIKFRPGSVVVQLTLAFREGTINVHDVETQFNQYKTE
Protocol: (§1) ELISA assays were performed to determine if, in addition to recognizing their immunizing peptide, they recognized PSMGFR, N−10 or C−10. In addition, they were tested for their ability to bind to N+20/C−27, N+9/C−9. We first did the ELISA assay on our set of reference antibodies, MNC2, MNE6, which we know are cancer-specific plus MNC3, which we know recognizes stem cells and progenitor cells (FIG. 63A-63B). None of the reference antibodies bound to the N+20/C−27 peptide. MNC2 and MNE6 cannot bind to PSMGFR peptides with 27, 10 or 9 C-terminal deletions, however, MNC3 binds to C−10 and to N+9/C−9 peptides.

[3] = molecular target: T3, N+9/C-9 peptide (9 amino acids added onto the N-terminus and 9 deleted from the C-terminus of PSMGFR); assay: ELISA (FIG. 63A)
T3 peptide: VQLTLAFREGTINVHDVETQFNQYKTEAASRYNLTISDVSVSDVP
Protocol: as §1

[4] = molecular target: T4, PSMGFR peptide (Primary Sequence of the MUC1 Growth Factor Receptor); assay: ELISA (FIG. 2C)
T4 construct: synthetic peptide immobilised on ELISA plates; also called MUC1* peptide; MUC1* extra cellular domain peptide
T4 peptide: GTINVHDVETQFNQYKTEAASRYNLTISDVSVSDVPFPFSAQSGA

[5] = molecular target: T5, C-10 peptide (PSMGFR minus 10 amino acids from the C-terminus); assay: ELISA
T5 construct: also called C-10 PSMGFR; PSMGFR C-10
T5 peptide: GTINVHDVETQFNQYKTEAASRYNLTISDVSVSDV

B1: MN-E6 mouse monoclonal anti-MUC1* antibody (antibody, V domains shown)
VH: EVKVVESGGDLVKPGGSLKLSCVVSGFTFSRYGMSWVRQTPGKRLEWVATISGGGTYIYYPDSVKGRFTISRDNAKNTLYLQMSSLKSEDTAMYHCTRDNYGRNYDYGMDYWGQGTSVTVSS
VL: QIVLTQSPAIMSASPGEEVTLTCSATSSVSYIHWFQQRPGTSPKLWIYSTSNLASGVPVRFSGSGYGTSYSLTISRMEAEDAATYYCQQRSSSPFTFGSGTKLEIK
notes: mouse monoclonal raised against PSMGFR; also called Min-E6
Question: What does the source list for B1?
Answer: binding result [1]: binds; binding result [2]: no binding; binding result [3]: no binding (tested: 10 ug/mL or 1 ug/mL); binding result [4]: binds; binding result [5]: no binding

Source: US20220184120A1 (MINERVA BIOTECHNOLOGIES, published 2022)
